B1: ATGL (PNPLA2, patatin-like phospholipase domain-containing protein 2), human, full length / CGI-58 (ABHD5, 1-acylglycerol-3-phosphate O-acyltransferase ABHD5), human (parent)
chain 1: MFPREKTWNISFAGCGFLGVYYVGVASCLREHAPFLVANATHIYGASAGALTATALVTGVCLGEAGAKFIEVSKEARKRFLGPLHPSFNLVKIIRSFLLKVLPADSHEHASGRLGISLTRVSDGENVIISHFNSKDELIQANVCSGFIPVYCGLIPPSLQGVRYVDGGISDNLPLYELKNTITVSPFSGESDICPQDSSTNIHELRVTNTSIQFNLRNLYRLSKALFPPEPLVLREMCKQGYRDGLRFLQRNGLLNRPNPLLALPPARPHGPEDKDQAVESAQAEDYSQLPGEDHILEHLPARLNEALLEACVEPTDLLTTLSNMLPVRLATAMMVPYTLPLESALSFTIRLLEWLPDVPEDIRWMKEQTGSICQYLVMRAKRKLGRHLPSRLPEQVELRRVQSLPSVPLSCAAYREALPGWMRNNLSLGDALAKWEECQRQLLLGLFCTNVAFPPEALRMRAPADPAPAPADPASPQHQLAGPAPLLSTPAPEARPVIGALGL
chain 2: MAAEEEEVDSADTGERSGWLTGWLPTWCPTSISHLKEAEEKMLKCVPCTYKKEPVRISNGNKIWTLKFSHNISNKTPLVLLHGFGGGLGLWALNFGDLCTNRPVYAFDLLGFGRSSRPRFDSDAEEVENQFVESIEEWRCALGLDKMILLGHNLGGFLAAAYSLKYPSRVNHLILVEPWGFPERPDLADQDRPIPVWIRALGAALTPFNPLAGLRIAGPFGLSLVQRLRPDFKRKYSSMFEDDTVTEYIYHCNVQTPSGETAFKNMTIPYGWAKRPMLQRIGKMHPDIPVSVIFGARSCIDGNSGTSIQSLRPHSYVKTIAILGAGHYVYADQPEEFNQKVKEICDTVD
B2: ATGL (PNPLA2, patatin-like phospholipase domain-containing protein 2), human, full length / CIDEC (FSP27), human (parent)
chain 1: B1 chain 1
chain 2: MEYAMKSLSLLYPKSLSRHVSVRTSVVTQQLLSEPSPKAPRARPCRVSTADRSVRKGIMAYSLEDLLLKVRDTLMLADKPFFLVLEEDGTTVETEEYFQALAGDTVFMVLQKGQKWQPPSEQGTRHPLSLSHKPAKKIDVARVTFDLYKLNPQDFIGCLNVKATFYDTYSLSYDLHCCGAKRIMKEAFRWALFSMQATGHVLLGTSCYLQQLLDATEEGQPPKGKASSLIPTCLKILQ

Variants of: B1
Experiment: LUMIER: Protein A-ATGL variant and firefly luciferase-partner co-expressed in HEK293T, lysates immunoprecipitated on IgG-coated plates, co-precipitated partner measured as luciferase luminescence
Details: with CGI-58 (ABHD5, 1-acylglycerol-3-phosphate O-acyltransferase ABHD5), transient co-transfection, IgG-coated LUMITRAC plates, 2 h at 4 °C, three PBS washes, Bright-Glo luciferase reagent, triplicates per assay, two …, parent: 0.32, not graded, scale: log2 fold change of co-immunoprecipitated luminescence relative to wild-type ATGL within each experiment

Variant	screen value
chain 1 R113L	-0.625
chain 1 R113K	0.189
chain 1 R351L	-0.948
chain 1 K275A	-0.731
chain 1 Q396A	-0.502
chain 1 I70A	-0.496
chain 1 I70K	-0.355
chain 1 Y415A	0.149
chain 1 L178A	-0.598
chain 1 N39E	-0.3
chain 1 H109E	0.0522
chain 1 S87A	-0.244
chain 1 S87E	-0.0233
chain 1 T41A	0.269
chain 1 L62K	-0.614
chain 1 L62A	-0.556
chain 1 L261E	-1.2
chain 1 P258L	-1.23
chain 1 G189E	-1.39
chain 1 V328A	-0.513
chain 1 V127L	-0.449
chain 1 R329E	-0.412
chain 1 K92L	-0.67
chain 1 R95K	0.177
chain 1 R95L	-0.121
chain 1 L159A	-0.737
chain 1 P103K	-0.089
chain 1 S158E	-0.0835
chain 1 S158A	0.402
chain 1 R163K	0.351

Same assay, conditions: with CGI-58 (ABHD5, 1-acylglycerol-3-phosphate O-acyltransferase ABHD5), transient co-transfection, IgG-coated LUMITRAC plates, 2 h at 4 °C, three PBS washes, Bright-Glo luciferase reagent, triplicates per assay, two …, parent: 0.45, not graded, scale: log2 fold change of co-immunoprecipitated luminescence relative to wild-type ATGL within each experiment

Variant	screen value
chain 1 R113L	-0.259
chain 1 R113K	0.534
chain 1 R351L	-1.04
chain 1 K275A	-0.473
chain 1 Q396A	-0.818
chain 1 I70A	-0.552
chain 1 I70K	-0.676
chain 1 Y415A	-0.124
chain 1 L178A	-0.392
chain 1 N39E	-0.215
chain 1 H109E	-0.021
chain 1 S87A	-0.0566
chain 1 S87E	-0.304
chain 1 T41A	0.283
chain 1 N180L	-0.679
chain 1 L62K	-0.447

Variant	screen value
chain 1 L62A	-0.528
chain 1 L261E	-0.989
chain 1 P258L	-1.16
chain 1 G189E	-1.13
chain 1 V328A	-0.464
chain 1 V127L	-0.203
chain 1 R329E	-0.601
chain 1 K92L	-0.328
chain 1 R95K	-0.0705
chain 1 R95L	-0.396
chain 1 L159A	-0.542
chain 1 P103K	0.0251
chain 1 S158E	-0.000176
chain 1 S158A	0.00753
chain 1 R163K	0.226

Same assay, conditions: with CGI-58 (ABHD5, 1-acylglycerol-3-phosphate O-acyltransferase ABHD5), transient co-transfection, IgG-coated LUMITRAC plates, 2 h at 4 °C, three PBS washes, Bright-Glo luciferase reagent, triplicates per assay, two …, parent: 0.32, not graded, value at the no-binding floor (a bound), scale: log2 fold change of co-immunoprecipitated luminescence relative to wild-type ATGL within each experiment

Variant	screen value
chain 1 N180L	-1.8

Variants of: B2
Experiment: as above
Details: with CIDEC (FSP27), transient co-transfection, IgG-coated LUMITRAC plates, 2 h at 4 °C, three PBS washes, Bright-Glo luciferase reagent, triplicates per assay, two …, parent: 0.17, not graded, scale: log2 fold change of co-immunoprecipitated luminescence relative to wild-type ATGL within each experiment

Variant	screen value
chain 1 I70A	-0.118
chain 1 I70K	-0.434
chain 1 G153A	-0.268
chain 1 G153K	-0.57
chain 1 F35E	0.312
chain 1 F35A	0.00149
chain 1 G189E	-0.952
chain 1 F348E	-0.409
chain 1 A434L	-0.034
chain 1 G59L	0.339
chain 1 L178A	-0.204
chain 1 A104E	-0.0649
chain 1 L159A	-0.648
chain 1 L261E	-0.713
chain 1 E125L	-0.231
chain 1 L102K	-0.128
chain 1 G16K	0.534
chain 1 L62A	-0.111
chain 1 L62K	-0.0341
chain 1 E314A	-0.691
chain 1 G66L	0.197
chain 1 G66A	-0.0355
chain 1 E368A	-0.223
chain 1 H109E	-0.00157
chain 1 K92L	-0.0227
chain 1 A453E	0.56
chain 1 K275A	-0.673

Same assay, conditions: with CIDEC (FSP27), transient co-transfection, IgG-coated LUMITRAC plates, 2 h at 4 °C, three PBS washes, Bright-Glo luciferase reagent, triplicates per assay, two …, parent: 0.24, not graded, scale: log2 fold change of co-immunoprecipitated luminescence relative to wild-type ATGL within each experiment

Variant	screen value
chain 1 I70A	-0.628
chain 1 I70K	-0.623
chain 1 G153A	0.00164
chain 1 G153K	-0.174
chain 1 F35E	0.00116
chain 1 F35A	-0.0902
chain 1 G189E	-0.896
chain 1 F348E	-0.389
chain 1 A434L	0.729
chain 1 G59L	-0.00561
chain 1 L178A	-0.645
chain 1 A104E	-0.317
chain 1 L159A	0.00161
chain 1 L261E	-0.796
chain 1 E125L	-0.238
chain 1 L102K	-0.319
chain 1 G16K	0.954
chain 1 L62A	-0.17
chain 1 L62K	0.845
chain 1 E314A	-0.29
chain 1 G66L	-0.656
chain 1 G66A	-0.0837
chain 1 E368A	-0.54
chain 1 H109E	-0.00996
chain 1 K92L	0.785
chain 1 A453E	0.847
chain 1 K275A	-0.64

— article PMC10958042
